Test results published in PMC9187738.

Target: hamster JUNO (hamster)
Test: live imaging-based adhesion molecule (LIAM) assay; BHK cells, non-inducible expression (cytomegalovirus promoter); separately transfected cells mixed in equal amounts 4 h after transfection, incubated 20 h, imaged every 6 min for 12 h at 40x, 37 °C, 5% CO2; read-outs: accumulation at the cell interface and translocation to the opposite cell, % of contacting cell pairs

- IZUMO1 accumulation (% of contacting cell pairs): 78%
B1: mouse IZUMO1-Venus (natural protein)
chain: CIKCDQFVTDALKTFENTYLNDHLPHDIHKNVMRMVNHEVSSFGVVTSAEDSYLGAVDENTLEQATWSFLKDLKRITDSDLKGELFIKELLWMLRHQKDIFNNLARQFQKEVLCPNKCGVMSQTLIWCLKCEKQLHICRKSLDCGERHIEVHRSEDLVLDCLLSWHRASKGLTDYSFYRVWENSSETLIAKGKEPYLTKSMVGPEDAGNYRCVLDTINQGHATVIRYDVTVLPPKHSEENQPPNIITQEEHETPVHVTPQTPPGQEPESELYPELHPELYPELIPTVAQNPEKKMKTRLLILLTLGFVVLVASIIISVLHFRKVSAKLKNASDEVKPTASGSKSDQSLSQQMGLKKASQADFNSDYSGDKSEATEN
